# Measured values taken from publication PMC11424739.
# System: CC(C)CC1CC(=O)NC(=O)C1
# Assay: purified protein
# Assay type: biochemical, Paraburkholderia phytofirmans
# Conditions: 50 mmol L^-1 Tris-HCl pH 8.0, 40 °C, IBI 0.10-2.0 mg mL^-1
Substance,Km [mM],kcat [s⁻¹],kcat/Km [M⁻¹ s⁻¹]
BpIH (Paraburkholderia phytofirmans PsJN),9.02 ± 0.51,0.00967 ± 0.0075,1.07
BpIH (Paraburkholderia phytofirmans PsJN; H133N/S226I/Y37F),7.31 ± 0.73,0.0573 ± 0.005,7.82
BpIH (Paraburkholderia phytofirmans PsJN; H133N/S226L/Y37F),8.48 ± 1.03,0.052 ± 0.00367,5.67
BpIH (Paraburkholderia phytofirmans PsJN; S226L),9.28 ± 1.09,0.0517 ± 0.00617,5.47
